According to paper PMC4633281:

Legend:
[1] = target: TamA with loop-His6 sequence (E. coli) (UniProt P0ADE4); experiment: magnetic contrast neutron reflectometry
[2] = target: reconstituted TAM (TamA loop-His6 with purified TamB) in a supported membrane (E. coli) (UniProt P0ADE4); experiment: magnetic contrast neutron reflectometry
[3] = target: TamA with loop-His6 sequence (E. coli) (UniProt P0ADE4); experiment: quartz crystal microbalance with dissipation

Substance | surface excess of Ag43, fold over that with the complete TAM [1] | volume fraction of Ag43 in the membrane layer [1] | volume fraction of Ag43 in the membrane layer [2] | decrease in frequency (QCM-D) [3] | frequency response (QCM-D) [3]
Ag43, urea-denatured, purified (from UniProt P39180 53-1039) (natural protein) | 3 fold | 45% | 11% | – | –
TamB, soluble, purified from the periplasm (domain or fragment) | – | – | – | 95 Hz | 30 Hz
